Laboratory results as given in patent US7459439B2, “Granulysin peptides and methods of use thereof” (The Regents of the University of California, priority 2003, dated 2008).

What was measured:
[1] = system: Propionibacterium acnes; test: Killing of / antimicrobial activity against P. acnes; details: FIG. 1-3
Excerpt: The susceptibility of a particular microbe or virus to killing or inhibition by granulysins may be determined by in vitro testing, as detailed in the experimental section. Typically a culture of the microbe is combined with granulysins at varying concentrations for a period of time sufficient to allow the protein to act, usually ranging from about one hour to one day. The viable microbes are then counted, and the level of killing determined.

[2] = system: IL-12 production by monocytes; test: Inhibition of IL-12 production by monocytes; format: cell-based; details: FIG. 4a
[3] = system: TNF-α production by monocytes; test: Inhibition of TNF-α production by monocytes; format: cell-based; details: FIG. 4b
[4] = system: bacteria, parasites and fungi; test: Range of antimicrobial activity of granulysin; format: cell-based; details: experiments performed in applicant's laboratory
Excerpt: Granulysin is a 9 kDa basic (arginine-rich) protein and is a member of a larger group of proteins, referred to as saposin-like proteins (sphingolipid activator protein like protein=SAPLIP). This family has been highly conserved for almost a billion years, from amoebas to humans. […] This family includes NK-lysin, isolated from pig intestines, and amoebapores, used by amoebas to kill bacterial prey. […] We have synthesized a shorter granulysin peptide 20 amino acid in length and tested for antimicrobial activity. Further modification of this peptide was done by substituting a more hydrophobic amino acid residue, tryptophan at position 44, and tested for antimicrobial activity.

[5] = system: M. tuberculosis; details: cited from earlier work
[6] = system: bacterial membranes; details: Ernst et al. (2000); cited from earlier work

granulysin peptide #31-50: Synthetic peptide of residues 31-50 of human granulysin, SEQ ID NO:2 (TRVCRTGRSRWRDVCRNFMR) (TRVCRTGRSRWRDVCRNFMR; H. sapiens)
killing of P. acnes / antimicrobial activity against P. acnes [1]: effective at killing P. acnes

granulysin peptide #31-50(W44): Modified 20 amino acid granulysin peptide 31-50 with tryptophan substituted at position 44; probably SEQ ID NO:3 TRVSRTGRSRWRDWSRNFMR
inhibition of IL-12 production by monocytes [2]: able to inhibit IL-12
inhibition of TNF-α production by monocytes [3]: able to inhibit

B1: granulysin: 9 kDa arginine-rich protein, late T cell activation marker, member of saposin-like proteins (protein)
chain: GRDYRTCLTIVQKLKKMVDKPTQRSVSNAATRVCRTGRSRWRDVCRNFMRRYQSRVIQGLVAGETAQQICEDLR
modifications: H. sapiens
range of antimicrobial activity [4]: wide range of antimicrobial activity against bacteria, parasites and fungi
effect on M. tuberculosis by electron microscopy [5]: trigger fluid accumulation in the periplasm of M. tuberculosis
alteration of bacterial membranes [6]: increasing their permeability, inducing lesions on the surface of bacteria and separation of the cell wall and membranes from the cytoplasm
killing of P. acnes / antimicrobial activity against P. acnes [1]: effective at killing Propionibacterium acnes
